Test results published in patent US20090170750A1 (Novo Nordisk, published 2009).
Where a chain is given by its changes, count along the chain named. Names and notes keep the numbering of the source. Blank lines part the entries; values can stand above or below the molecule they belong to. Bridges are numbered along the chain shown (N, C = ends). Where no end group is shown, it is not given here.

How the values were obtained:
[1] = biological target: human IGF-1 receptor (human) (UniProt P08069); assay: competition with 125I-IGF-1 (SPA)
[2] = biological target: purified recombinant human insulin receptor-exon 11 (human) (UniProt P06213); assay: competition with 125I-insulin (SPA)
[3] = biological target: T1, purified recombinant human insulin receptor-exon 11 (human, UniProt P06213-2 28-1370, limits assumed); assay: competition with 125I-insulin (SPA)
T1 construct: also called IR
Method: A total of 100 μl was then added and a dilution series is made from appropriate samples. To the dilution series was then added 100 μl of reagent mix and the samples were incubated for 16 hours while gently shaken. The phases were the then separated by centrifugation for 1 min and the plates counted in a Topcounter. The binding data were fitted using the nonlinear regression algorithm in the GraphPad Prism 2.01 (GraphPad Software, San Diego, Calif.).

Molecule: single-chain insulin PAK 1879, connecting peptide VGLSSGQ [B29A_A18Q] (from UniProt P01308 25-53; P01308 90-110) (ligand)
- IR, binding relative to human insulin [2]: 92%

Molecule: single-chain insulin PAK 1880, connecting peptide VGLSSGQ [B1G_B3Q_A18Q_A21G] (from UniProt P01308 25-53; P01308 90-110) (ligand)
- IR, binding relative to human insulin [2]: 54%

Molecule: single-chain insulin PAK 1884, connecting peptide VGLSSGQ [B29A_A8K_A18Q] (from UniProt P01308 25-53; P01308 90-110) (ligand)
- IR, binding relative to human insulin [2]: 89%

Molecule: single-chain insulin PAK 1891, connecting peptide TGLGSGQ [B10A_A18Q] (from UniProt P01308 25-53; P01308 90-110) (ligand)
- IR, binding relative to human insulin [2]: 34%

Molecule: single-chain insulin PAK 1892, connecting peptide TGLGSGQ [desB1_B3Q_B10A_A18Q] (from UniProt P01308 26-53; P01308 90-110) (ligand)
- IR, binding relative to human insulin [2]: 38%

Molecule: single-chain insulin PAK 1893, connecting peptide TGLGSGQ [B10Q_A18Q] (from UniProt P01308 25-53; P01308 90-110) (ligand)
- IR, binding relative to human insulin [2]: 51%

Molecule: single-chain insulin PAK 1894, connecting peptide TGLGSGQ [desB1_B3Q_B10Q_A18Q] (from UniProt P01308 26-53; P01308 90-110) (ligand)
- IR, binding relative to human insulin [2]: 38%

Molecule: single-chain insulin PAK 1769013, connecting peptide QVGSSSGK [A18Q_A21G] (from UniProt P01308 25-53; P01308 90-110) (ligand)
- IR, binding relative to human insulin [2]: 33%

Molecule: single-chain insulin PAK 1769015, connecting peptide EVGSSSGK [A18Q_A21G] (from UniProt P01308 25-53; P01308 90-110) (ligand)
- IR, binding relative to human insulin [2]: 42%

Molecule: single-chain insulin PAK 1769020, connecting peptide SVGSSSGK [A18Q_A21G] (from UniProt P01308 25-53; P01308 90-110) (ligand)
- IR, binding relative to human insulin [2]: 51%

Molecule: single-chain insulin PAK 1769027, connecting peptide LVGSSSGK [A18Q_A21G] (from UniProt P01308 25-53; P01308 90-110) (ligand)
- IR, binding relative to human insulin [2]: 68%

Molecule: single-chain insulin PAK 1769033, connecting peptide PVGSSSGK [A18Q_A21G] (from UniProt P01308 25-53; P01308 90-110) (ligand)
- IR, binding relative to human insulin [2]: 37%

Molecule: single-chain insulin PAK 1769040, connecting peptide VVGSSSGK [A18Q_A21G] (from UniProt P01308 25-53; P01308 90-110) (ligand)
- IR, binding relative to human insulin [2]: 29%

Molecule: single-chain insulin PAK 1769053, connecting peptide GVGSSSGK [A18Q_A21G] (from UniProt P01308 25-53; P01308 90-110) (ligand)
- IR, binding relative to human insulin [2]: 37%

Molecule: single-chain insulin PAK 1769062, connecting peptide PVGSSSGK [A18Q_A21G] (from UniProt P01308 25-53; P01308 90-110) (ligand)
- IR, binding relative to human insulin [2]: 56%

B1: single-chain insulin PAK 1861, connecting peptide VGLGKGPGAGK [A18Q_A21G] (ligand)
chain: FVNQHLCGSHLVEALYLVCGERGFFYTPKVGLGKGPGAGKGIVEQCCTSICSLYQLEQYCG
- IR, binding relative to human insulin [3]: 36%

B2: B(1-29)-B27E-B29A-TGLGKGQ-A(1-21)-A18Q Human insulin (PAK1845) (ligand)
chain: FVNQHLCGSHLVEALYLVCGERGFFYEPATGLGKGQGIVEQCCTSICSLYQLEQYCN
modifications: disulfide 19-56, 42-47, 7-43
- IR, binding relative to human insulin [3]: 20%

B3: B(1-29)-B29A-TGLGKGQ-A(1-21)-A18Q Human insulin (PAK1837) (ligand)
chain: B2 chain with E27T
modifications: disulfide 19-56, 42-47, 7-43
- IR, binding relative to human insulin [3]: 71%

B4: single-chain insulin PAK 1735, connecting peptide VGRSSGK [A21G] (ligand)
chain: FVNQHLCGSHLVEALYLVCGERGFFYTPKVGRSSGKGIVEQCCTSICSLYQLENYCG
modifications: disulfide 19-56, 42-47, 7-43
- IR, binding relative to human insulin [3]: 143%

B5: single-chain insulin PAK 1873, connecting peptide KGLSSGQ [B29A_A18Q] (ligand)
chain: B2 chain with E27T, T30K, G33S, K34S
modifications: disulfide 19-56, 42-47, 7-43
- IR, binding relative to human insulin [3]: 60%

B6: single-chain insulin PAK 1896, connecting peptide VGLSSGQ [B29A_A18Q_A22K] (ligand)
chain: FVNQHLCGSHLVEALYLVCGERGFFYTPAVGLSSGQGIVEQCCTSICSLYQLEQYCNK
modifications: disulfide 19-56, 42-47, 7-43
- IR, binding relative to human insulin [3]: 38%

Now from value to molecule:

- Human IGF-1 receptor binding [1]: 0.05%
Molecule: single-chain insulin B(1-29)-TRLSQGR-A(1-21) (from UniProt P01308 25-53; P01308 90-110) (ligand)

- Human IGF-1 receptor binding [1]: 0.1%
Molecule: single-chain insulin B(1-29)-TRSSNGR-A(1-21) (from UniProt P01308 25-53; P01308 90-110) (ligand)

- Human IGF-1 receptor binding relative to human insulin [1]: 0.2%
Molecule: single-chain insulin PAK 1708, connecting peptide VGSRSGK (from UniProt P01308 25-53; P01308 90-110) (ligand)

- Human IGF-1 receptor binding relative to human insulin [1]: 0.5%
Molecule: single-chain insulin PAK 1709, connecting peptide VGRSSGK (SEQ ID NO:105) (from UniProt P01308 25-53; P01308 90-110) (ligand)

- Human IGF-1 receptor binding relative to human insulin [1]: 0.05%
Molecule: single-chain insulin PAK 1766, connecting peptide VGSSSGK (from UniProt P01308 25-53; P01308 90-110) (ligand)

- Human IGF-1 receptor binding relative to human insulin [1]: 0.1%
Molecule: single-chain insulin PAK 1638077, connecting peptide VGSSRGK (from UniProt P01308 25-53; P01308 90-110) (ligand)

- Human IGF-1 receptor binding relative to human insulin [1]: 0.2%
Molecule: single-chain insulin PAK 1687033, connecting peptide VGSYSGK (from UniProt P01308 25-53; P01308 90-110) (ligand)

- Human IGF-1 receptor binding relative to human insulin [1]: 0.1%
Molecule: single-chain insulin PAK 1687046, connecting peptide VGSMSGK (from UniProt P01308 25-53; P01308 90-110) (ligand)

- Human IGF-1 receptor binding relative to human insulin [1]: 0.2%
Molecule: single-chain insulin PAK 1688007, connecting peptide VGYSSGK (from UniProt P01308 25-53; P01308 90-110) (ligand)

- Human IGF-1 receptor binding relative to human insulin [1]: 0.1%
Molecule: single-chain insulin PAK 1688011, connecting peptide VGLSSGK (from UniProt P01308 25-53; P01308 90-110) (ligand)

- Human IGF-1 receptor binding relative to human insulin [1]: 0.2%
Molecule: single-chain insulin PAK 1688028, connecting peptide VGMSSGK (SEQ ID NO:106) (from UniProt P01308 25-53; P01308 90-110) (ligand)

- IR, binding relative to human insulin [2]: 23%
Molecule: single-chain insulin with connecting peptide GGSSGK (SEQ ID NO:116), no PAK number printed (from UniProt P01308 25-53; P01308 90-110) (ligand)

- IR, binding relative to human insulin [2]: 49%
Molecule: single-chain insulin with connecting peptide LGSSGK (SEQ ID NO:113), no PAK number printed (from UniProt P01308 25-53; P01308 90-110) (ligand)

- IR, binding relative to human insulin [2]: 36%
Molecule: single-chain insulin with connecting peptide QGSSGK (SEQ ID NO:110), no PAK number printed (from UniProt P01308 25-53; P01308 90-110) (ligand)

- IR, binding relative to human insulin [2]: 34%
Molecule: single-chain insulin with connecting peptide QGSSGK (SEQ ID NO:115), no PAK number printed (from UniProt P01308 25-53; P01308 90-110) (ligand)

- Human IGF-1 receptor binding relative to human insulin [1]: 0.5%
- IR, binding relative to human insulin [2]: 54%
Molecule: single-chain insulin with connecting peptide RGSSGK (SEQ ID NO:114), no PAK number printed (from UniProt P01308 25-53; P01308 90-110) (ligand)

- Human IGF-1 receptor binding relative to human insulin [1]: 0.15%
Molecule: single-chain insulin with connecting peptide VGHSSGK (SEQ ID NO:108), no PAK number printed (from UniProt P01308 25-53; P01308 90-110) (ligand)
